Values belong to the binder of their own block, whether it stands above or below them.
Legend:
[1] = target: T1, O772P 3-repeat recombinant protein (human); assay: ELISA, plate-bound O772P 3-repeat
T1 construct: Repeats are residues 14-452 of the entry
T1 chain: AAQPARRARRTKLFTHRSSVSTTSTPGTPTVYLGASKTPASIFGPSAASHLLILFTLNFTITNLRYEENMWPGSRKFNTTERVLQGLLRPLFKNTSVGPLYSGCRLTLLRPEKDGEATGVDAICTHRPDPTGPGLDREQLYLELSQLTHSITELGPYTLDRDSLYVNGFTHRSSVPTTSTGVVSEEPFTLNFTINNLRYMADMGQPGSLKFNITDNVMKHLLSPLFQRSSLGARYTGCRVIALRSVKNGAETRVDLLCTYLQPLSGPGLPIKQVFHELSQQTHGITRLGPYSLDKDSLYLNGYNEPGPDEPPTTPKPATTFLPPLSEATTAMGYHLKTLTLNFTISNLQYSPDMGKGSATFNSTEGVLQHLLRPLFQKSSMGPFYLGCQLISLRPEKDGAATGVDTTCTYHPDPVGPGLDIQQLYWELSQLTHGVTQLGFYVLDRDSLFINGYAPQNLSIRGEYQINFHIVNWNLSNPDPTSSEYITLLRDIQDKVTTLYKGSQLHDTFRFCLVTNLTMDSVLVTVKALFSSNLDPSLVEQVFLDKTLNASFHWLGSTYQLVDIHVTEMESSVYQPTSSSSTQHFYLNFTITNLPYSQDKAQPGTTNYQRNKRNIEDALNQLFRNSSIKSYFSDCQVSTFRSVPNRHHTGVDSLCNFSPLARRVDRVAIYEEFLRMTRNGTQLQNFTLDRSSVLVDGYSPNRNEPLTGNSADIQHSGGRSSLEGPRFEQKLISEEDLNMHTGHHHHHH
Procedure: On the next day, the plates were washed with 200 μl 1×PBST (1× phosphate-buffered saline (PBS), 0.05% Tween 20) three times and blocked with 100 μl of 1×PBST containing 1% bovine serum albumin (BSA) for 2 hours at 37° C. […] After 1 hour incubation at 37° C., the plates were then washed with 1×PBST three times. For signal detection, 100 μl of HRP (horseradish peroxidase)-conjugated sheep anti-mouse IgG (1:2000 dilution into 1×PBST+1% BSA; Amersham Biosciences) was added to each well and incubated for 1 hour at 37° C. The plates were again washed three times with 1×PBST. Finally, 100 μl¹ of a mixture of TMB (3,3′, 5,5′-tetramethylbenzidine) substrate and H₂O₂ (1:1 ratio, KPL Kirkguard Perry Laboratories) was added into each well and after a 5 minute incubation, the absorbance was measured at 405 nm with a plate reader (Molecular Devices Corp., Sunnyvale, Calif.). The assay was done in triplicate for each selected O772P hybridoma-produced antibody and data was collected and analyzed as a kinetic assay, measured over a 5 minute time period. Average values were calculated and presented. Controls for blank and individual reagents were also included in each experiment.

[2] = target: T2, CA 125/O772P on OVCAR-3 cells (human, UniProt Q8WXI7 1-14507); assay: flow cytometry, OVCAR-3 cells; Ab 2 µg/ml
T2 construct: whole, on cells

[3] = target: T1, O772P 3-repeat recombinant protein; assay: ELISA competition, plate-bound O772P 3-repeat; no competitor
Procedure: (§1) On the next day, the plates were washed with 200 μl 1×PBST (1× phosphate-buffered saline (PBS), 0.05% Tween 20) three times and blocked with 100 μl of 1×PBST containing 1% bovine serum albumin (BSA) for 2 hours at 37° C. […] After 1 hour incubation at 37° C., the plates were then washed with 1×PBST three times. For signal detection, 100 μl of HRP-conjugated sheep anti-mouse IgG (1:2000 dilution into 1×PBST+1% BSA, Amersham Biosciences) was added to each well and incubated for 1 hour at 37° C. The plates were washed again with 1×PBST three times. Finally, 100 μl¹ of a mixture of TMB substrate and H₂O₂ (1:1 ratio, KPL) was added into each well and the absorbance was measured at 405 nm with a plate reader (Molecular Devices Corp., Sunnyvale, Calif.). The assay was done in triplicate for each selected antibody and average values were calculated and presented. The percent inhibition compared to no competition was calculated for individual antibodies based on average values. Controls for blank and individual reagents were also included in each experiment.

[4] = target: T1, O772P 3-repeat recombinant protein; assay: ELISA competition, plate-bound O772P 3-repeat; competitor shed CA 125/O772P
Procedure: as §1

[5] = target: T1, O772P 3-repeat recombinant protein; assay: ELISA competition, plate-bound O772P 3-repeat; competitor soluble O772P 3-repeat
Procedure: as §1

[6] = target: T3, shed CA 125/O772P polypeptide (human, UniProt Q8WXI7 1-14401, limits assumed); assay: western blot of OVCAR-3 conditioned media (Time 0, 1 hour, 6 hours, Day 1, Day 2, Day 3), chemiluminescence
T3 construct: OVCAR-3 conditioned medium in the western blot; also called high molecular weight species in OVCAR-3 supernatant

absorbance (OD) [1]: 1.29 OD | absorbance (OD)/µg Ab [1]: 32 OD/µg Ab | % positive cells [2]: 89% | absorbance [3]: 1.29 OD | absorbance w/shed CA 125/O772P competitor (25-fold w/w excess) [4]: 1.33 OD | absorbance w/O772P 3-repeat competitor (10 x w/w excess) [5]: 0.915 OD
B1: monoclonal antibody 368.1 (antibody, V domains shown)
VH: EVQLQQSGPELVRTGASVKISCKASGYSFTGFYMHWVKQSLGKSLEWIGYVSCYTGATTYTQKFKGKATFTVDTSSSTAYMQLNSLTSEDSAVYYCAREGDYYSMDFWGQGTSVTVSS
VL: DVVMTQTPLSLPVSLGDQASISCRSSQSLERTNGNTYLHWYLQKPGQSPKLLIYKVSSRFSGVPDRFSGSGSGTDFTLKISRVEAEDLGIYFCSQTTHGPPTCGGGTKLEIK
notes: Murine hybridoma antibody
binding result [6]: no binding (tested: Day 3 conditioned medium)

absorbance (OD) [1]: 0.856 OD | absorbance (OD)/µg Ab [1]: 21 OD/µg Ab | % positive cells [2]: 95% | absorbance [3]: 0.856 OD | absorbance w/shed CA 125/O772P competitor (25-fold w/w excess) [4]: 0.735 OD | absorbance w/O772P 3-repeat competitor (10 x w/w excess) [5]: 0.065 OD
B2: monoclonal antibody 501.1 (antibody, V domains shown)
VH: QIQLVQSGPELKKPGETVQISCKASGYIFTDYGMNWVKQAPGKGLKWMGCINTYTGETIYSDDFRGRFAISLETSASTAFIQINNLKNEDAATYFCARGNYRDAIDYWGQGTSVTVSS
VL: DIKMTQSPSSIYASLGERVTITCKASQDIKSYLSWYQQKPWKSPKTLIYYATTLADGVPSRFSGSGSGQDYSLIINSLESDDIATYFCLHHDESPFTFGSGTKLEI
notes: Murine hybridoma antibody

absorbance (OD) [1]: 0.619 OD | absorbance (OD)/µg Ab [1]: 15 OD/µg Ab | % positive cells [2]: 93% | absorbance [3]: 0.619 OD | absorbance w/shed CA 125/O772P competitor (25-fold w/w excess) [4]: 0.554 OD | absorbance w/O772P 3-repeat competitor (10 x w/w excess) [5]: 0.071 OD
B3: monoclonal antibody 117.1 (antibody, V domains shown)
VH: QVTLKESGPGILQPSQTLSLTCSFSGFSLSTPGMGVGWIRQPSGKGLEWLAHIWWDDFKRDNPALKSRLTISKDTSSSQVFLKIASVDTADTATYYCVRVDGNFLSWYFDVWGAGTTVTVSS
VL: DAVMTQTPLSLPVSLGDQASISCRSSQSLVHSNGNTYLHWYLQKPGQSPKLLIYKVSNRFSGVPDRFSGSGSGTDFTLRISRVEAEDLGVYFCSQSRYVPWTFGGGTKLEIK
notes: Murine hybridoma antibody

From patent publication US20050064518A1 (PURDUE PHARMA L P, published 2005)
